In article PMC2810746 (Cell host & microbe, 2009):

Biological target: the molecule itself
Assay: immunoblotting of unboiled samples

B1: adenovirus penton base, recombinant, expressed in COS-7 cells (natural protein)
chain: MRRAAMYEEGPPPSYESVVSAAPVAAALGSPFDAPLDPPFVPPRYLRPTGGRNSIRYSELAPLFDTTRVYLVDNKSTDVASLNYQNDHSNFLTTVIQNNDYSPGEASTQTINLDDRSHWGGDLKTILHTNMPNVNEFMFTNKFKARVMVSRLPTKDNQVELKYEWVEFTLPEGNYSETMTIDLMNNAIVEHYLKVGRQNGVLESDIGVKFDTRNFRLGFDPVTGLVMPGVYTNEAFHPDIILLPGCGVDFTHSRLSNLLGIRKRQPFQEGFRITYDDLEGGNIPALLDVDAYQASLKDDTEQGGGGAGGSNSSGSGAEENSNAAAAAMQPVEDMNDHAIRGDTFATRAEEKRAEAEAAAEAAAPAAQPEVEKPQKKPVIKPLTEDSKKRSYNLISNDSTFTQYRSWYLAYNYGDPQTGIRSWTLLCTPDVTCGSEQVYWSLPDMMQDPVTFRSTRQISNFPVVGAELLPVHSKSFYNDQAVYSQLIRQFTSLTHVFNRFPENQILARPPAPTITTVSENVPALTDHGTLPLRNSIGGVQRVTITDARRRTCPYVYKALGIVSPRVLSSRTF
For B1, the “stoichiometry N” value was 5.
